# In patent US20160279215A1, “NOVEL PEPTIDES AND COMBINATION OF PEPTIDES FOR USE IN IMMUNOTHERAPY AGAINST VARIOUS TUMORS” (immatics biotechnologies GmbH, priority 2015, published 2016):
# B1: YLYELEHAL (peptide)
# peptide: YLYELEHAL
# B2: SLDKDIVAL (peptide)
# peptide: SLDKDIVAL
# B3: FLLDKPQDL (peptide)
# peptide: FLLDKPQDL
# B4: TIGIPFPNV (peptide)
# peptide: TIGIPFPNV
# B5: FLFVDPELV (peptide)
# peptide: FLFVDPELV
# B6: KLMDPGSLPPL (peptide)
# peptide: KLMDPGSLPPL
# B7: ALGDKFLLRV (peptide)
# peptide: ALGDKFLLRV
# B8: GLAFLPASV (peptide)
# peptide: GLAFLPASV
# B9: LKVLKADVVL (peptide)
# peptide: LKVLKADVVL
# B10: NLLIDDKGTIKL (peptide)
# peptide: NLLIDDKGTIKL
# B11: TVLEEIGNRV (peptide)
# peptide: TVLEEIGNRV
# B12: ALLEEEEGV (peptide)
# peptide: ALLEEEEGV
# notes: also called MAGEA4-003
# B13: QLVQRVASV (peptide)
# peptide: QLVQRVASV
# B14: HLQEKLQSL (peptide)
# peptide: HLQEKLQSL
# B15: TLYPGRFDYV (peptide)
# peptide: TLYPGRFDYV
# B16: ILTNKVVSV (peptide)
# peptide: ILTNKVVSV
# B17: QIADIVTSV (peptide)
# peptide: QIADIVTSV
# B18: ILAEEPIYI (peptide)
# peptide: ILAEEPIYI
# B19: VLQQESNFL (peptide)
# peptide: VLQQESNFL
# B20: KTASINQNV (peptide)
# peptide: KTASINQNV
# B21: SLLNQPKAV (peptide)
# peptide: SLLNQPKAV
# B22: VQSGLRILL (peptide)
# peptide: VQSGLRILL
# B23: KVFELDLVTL (peptide)
# peptide: KVFELDLVTL
# B24: KMISAIPTL (peptide)
# peptide: KMISAIPTL
# B25: GLEERLYTA (peptide)
# peptide: GLEERLYTA
# B26: VIIKGLEEI (peptide)
# peptide: VIIKGLEEI
# B27: SLYAGSNNQV (peptide)
# peptide: SLYAGSNNQV
# B28: SLYALHVKA (peptide)
# peptide: SLYALHVKA
# B29: AVPPPPSSV (peptide)
# peptide: AVPPPPSSV
# B30: GLTEKTVLV (peptide)
# peptide: GLTEKTVLV
# B31: KLIGNIHGNEV (peptide)
# peptide: KLIGNIHGNEV
# B32: TLDRNSLYV (peptide)
# peptide: TLDRNSLYV
# B33: AMFPDTIPRV (peptide)
# peptide: AMFPDTIPRV
# B34: GLAEFQENV (peptide)
# peptide: GLAEFQENV
# B35: HLNNDRNPL (peptide)
# peptide: HLNNDRNPL
# B36: ALSTVTPRI (peptide)
# peptide: ALSTVTPRI
# B37: TLHDQVHLL (peptide)
# peptide: TLHDQVHLL
# notes: also called ESR1-001
# B38: QIVELIEKI (peptide)
# peptide: QIVELIEKI
# B39: MTLSEIHAV (peptide)
# peptide: MTLSEIHAV
# B40: SLNKQIETV (peptide)
# peptide: SLNKQIETV
# B41: VLGEEQEGV (peptide)
# peptide: VLGEEQEGV
# B42: VLMDEGAVLTL (peptide)
# peptide: VLMDEGAVLTL
# B43: LDSEALLTL (peptide)
# peptide: LDSEALLTL
# B44: LLLESDPKVYSL (peptide)
# peptide: LLLESDPKVYSL
# B45: GLLENSPHL (peptide)
# peptide: GLLENSPHL
# B46: FVMEGEPPKL (peptide)
# peptide: FVMEGEPPKL
# B47: ALVEKGEFAL (peptide)
# peptide: ALVEKGEFAL
# B48: VLSTRVTNV (peptide)
# peptide: VLSTRVTNV
# B49: FIAAVVEKV (peptide)
# peptide: FIAAVVEKV
# B50: TLYQGLPAEV (peptide)
# peptide: TLYQGLPAEV
# B51: LLTGVFAQL (peptide)
# peptide: LLTGVFAQL
# B52: TLLPSSGLVTL (peptide)
# peptide: TLLPSSGLVTL
# B53: GVVPTIQKV (peptide)
# peptide: GVVPTIQKV
# notes: also called GWPTIQKV
# B54: HMSGKLTNV (peptide)
# peptide: HMSGKLTNV
# B55: SILKEDPFL (peptide)
# peptide: SILKEDPFL
# B56: IKVTDPQLLEL (peptide)
# peptide: IKVTDPQLLEL
# B57: SLSEKSPEV (peptide)
# peptide: SLSEKSPEV
# B58: KLLDKPEQFL (peptide)
# peptide: KLLDKPEQFL
# notes: also called FMN1-001
# B59: AILNVDEKNQV (peptide)
# peptide: AILNVDEKNQV
# B60: LLLLDVPTA (peptide)
# peptide: LLLLDVPTA
# B61: KLLEEVQLL (peptide)
# peptide: KLLEEVQLL
# B62: ALDSTIAHL (peptide)
# peptide: ALDSTIAHL
# B63: SVADLAHVL (peptide)
# peptide: SVADLAHVL
# B64: ALYSGDLHAA (peptide)
# peptide: ALYSGDLHAA
# B65: IMLNSVEEI (peptide)
# peptide: IMLNSVEEI
# B66: SLMEKNQSL (peptide)
# peptide: SLMEKNQSL
# B67: KQMSISTGL (peptide)
# peptide: KQMSISTGL
# Target: T1, HLA-A*02:01 (human)
# T1 construct: MHC monomers captured on streptavidin plates; the UV-sensitive peptide is cleaved and exchanged with the test peptide; also called peptide-receptive MHC molecules; MHC class I
# Assay: UV ligand-exchange ELISA (anti-b2m); ++ = exchange yield >=20%
# From the text: Candidate peptides for T cell based therapies according to the present invention were further tested for their MHC binding capacity (affinity). The individual peptide-MHC complexes were produced by UV-ligand exchange, where a UV-sensitive peptide is cleaved upon UV-irradiation, and exchanged with the peptide of interest as analyzed. Only peptide candidates that can effectively bind and stabilize the peptide-receptive MHC molecules prevent dissociation of the MHC complexes. To determine the yield of the exchange reaction, an ELISA was performed based on the detection of the light chain (β2m) of stabilized MHC complexes. The assay was performed as generally described in Rodenko et al. (Rodenko et al., 2006).
# 96 well MAXISorp plates (NUNC) were coated over night with 2 ug/ml streptavidin in PBS at room temperature, washed 4× and blocked for 1 h at 37° C. in 2% BSA containing blocking buffer. Refolded HLA-A*02:01/MLA-001 monomers served as standards, covering the range of 15-500 ng/ml. Peptide-MHC monomers of the UV-exchange reaction were diluted 100 fold in blocking buffer. Samples were incubated for 1 h at 37° C., washed four times, incubated with 2 ug/ml HRP conjugated anti-β2m for 1 h at 37° C., washed again and detected with TMB solution that is stopped with […]. Absorption was measured at 450 nm. Candidate peptides that show a high exchange yield (preferably higher than 50%, most preferred higher than 75%) are generally preferred for a generation and production of antibodies or fragments thereof, and/or T cell receptors or fragments thereof, as they show sufficient avidity to the MHC molecules and prevent dissociation of the MHC complexes.
row,peptide exchange yield [%],Binder
1,20 to 50,B1
2,20 to 50,B2
3,20 to 50,B3
4,20 to 50,B4
5,20 to 50,B5
6,20 to 50,B6
7,20 to 50,B7
8,20 to 50,B8
9,20 to 50,B9
10,20 to 50,B10
11,20 to 50,B11
12,20 to 50,B12
13,20 to 50,B13
14,20 to 50,B14
15,20 to 50,B15
16,20 to 50,B16
17,20 to 50,B17
18,20 to 50,B18
19,20 to 50,B19
20,20 to 50,B20
21,20 to 50,B21
22,20 to 50,B22
23,20 to 50,B23

row,peptide exchange yield [%],Binder
1,20 to 50,B24
2,20 to 50,B25
3,20 to 50,B26
4,20 to 50,B27
5,20 to 50,B28
6,20 to 50,B29
7,20 to 50,B30
8,20 to 50,B31
9,20 to 50,B32
10,20 to 50,B33
11,20 to 50,B34
12,20 to 50,B35
13,20 to 50,B36
14,20 to 50,B37
15,20 to 50,B38
16,20 to 50,B39
17,20 to 50,B40
18,20 to 50,B41
19,20 to 50,B42
20,20 to 50,B43
21,20 to 50,B44
22,20 to 50,B45
23,20 to 50,B46

row,peptide exchange yield [%],Binder
1,20 to 50,B47
2,20 to 50,B48
3,20 to 50,B49
4,20 to 50,B50
5,20 to 50,B51
6,20 to 50,B52
7,20 to 50,B53
8,20 to 50,B54
9,20 to 50,B55
10,20 to 50,B56
11,20 to 50,B57
12,20 to 50,B58
13,20 to 50,B59
14,20 to 50,B60
15,20 to 50,B61
16,20 to 50,B62
17,20 to 50,B63
18,20 to 50,B64
19,20 to 50,B65
20,20 to 50,B66
21,20 to 50,B67
